Data taken from PMC6163455, “β-Lactamase Tools for Establishing Cell Internalization and Cytosolic Delivery of Cell Penetrating Peptides” (Biomolecules, 2018).

These binders were tested against T1, SpyCatcher_β-lactamase protein ( | E. coli) (assay: SpyTag/SpyCatcher covalent conjugation (isopeptide bond), analysed by SDS-PAGE; peptide:protein ratio 1.125:1 or 1.25:1, 50 µM SpyC_BLA; 50 mM HEPES, 200 mM NaCl, pH 7.0; 2 h at room temperature and/or overnight at 4 °C; conjugation efficiencies analysed on 4-12% NuPAGE Bis-Tris gels; conjugates then used for uptake into CHO-K1 and T47D cells). Settings: both partners purified.
T1 construct: N-terminal leader as printed; TEM-1 β-lactamase of Escherichia coli without its signal peptide; C-terminal tail as printed; Printed mass 42.4 kDa; also called SpyC_β-lactamase; source: E. coli BL21 (DE3) Gold, purified (IMAC, SEC)

| Binder | binding result |
| --- | --- |
| RKQKSLQTKLAENPPVPRKKRQSRPRWKQWLQKGASAHIVMVDAYKPTKG (phylomer CPP 0084, discovered from phylomer peptide libraries; source: synthetic peptide (Pepscan or Mimotopes)) [0084_SpyT] | binds |
| PSSTPATNVARPRLNPIRGHKFALAVPNSRTRGASAHIVMVDAYKPTKG (phylomer CPP 0167, discovered from phylomer peptide libraries; source: synthetic peptide (Pepscan or Mimotopes)) [0167_SpyT] | binds |
| 1869_SpyT (phylomer CPP 1869, discovered from phylomer peptide libraries; source: synthetic peptide (Pepscan or Mimotopes)) peptide: PPHPRPLPAPAQSRKKQKGRAGRGHEKTGASVLRGPQKPHPLPAQLRGASAHIVMVDAYKPTKG | binds |
| KKKKQPPKPKKPKTQEKKKKQPPKPKRGASAHIVMVDAYKPTKG (phylomer CPP 1746c27, discovered from phylomer peptide libraries; source: synthetic peptide (Pepscan or Mimotopes)) [1746c27_SpyT] | binds |
| 1746_SpyT (source: synthetic peptide (Pepscan or Mimotopes)) peptide: PLKPKKPKTQEKKKKQPPKPKKPKTQEKKKKQPPKPKRGASAHIVMVDAYKPTKG | binds |
| GRKKRRQRRRGASAHIVMVDAYKPTKG (canonical CPP TAT; source: synthetic peptide (Pepscan or Mimotopes)) [TAT_SpyT] | binds |
| LFVDKATPQIYYTPSESVTVKSKGKNRRKKSGASAHIVMVDAYKPTKG (phylomer CPP 1788, discovered from phylomer peptide libraries; source: synthetic peptide (Pepscan or Mimotopes)) [1788_SpyT] | binds |
| 0169_SpyT (phylomer CPP 0169, discovered from phylomer peptide libraries; source: synthetic peptide (Pepscan or Mimotopes)) peptide: PLTQRTLQRGKKPKQRQNWKKARTSSAKTAPKTVVSRTTSQRKGASAHIVMVDAYKPTKG | binds |
